# Assay results published in patent US20250144199A1 (UNIVERSITY OF MARYLAND COLLEGE PARK, published 2025).
# B1: mouse C1q protein (Complement Technology Cat #M099), biotin-conjugated (other)
# chain 1: EDVCRAPNGKDGAPGNPGRPGRPGLKGERGEPGAAGIRTGIRGFKGDPGESGPPGKPGNVGLPGPSGPLGDSGPQGLKGVKGNPGNIRDQPRPAFSAIRQNPMTLGNVVIFDKVLTNQESPYQNHTGRFICAVPGFYYFNFQVISKWDLCLFIKSSSGGQPRDSLSFSNTNNKGLFQVLAGGTVLQLRRGDEVWIEKDPAKGRIYQGTEADSIFSGFLIFPSA
# chain 2: QSSCTGPPGIPGIPGVPGVPGSDGQPGTPGIKGEKGLPGLAGDLGEFGEKGDPGIPGTPGKVGPKGPVGPKGTPGPSGPRGPKGDSGDYGATQKVAFSALRTINSPLRPNQVIRFEKVITNANENYEPRNGKFTCKVPGLYYFTYHASSRGNLCVNLVRGRDRDSMQKVVTFCDYAQNTFQVTTGGVVLKLEQEEVVHLQATDKNSLLGIEGANSIFTGFLLFPDMDA
# chain 3: SAGCYGIPGMPGMPGAPGKDGHDGLQGPKGEPGIPAVPGTRGPKGQKGEPGMPGHRGKNGPRGTSGLPGDPGPRGPPGEPGVEGRYKQKHQSVFTVTRQTTQYPEANALVRFNSVVTNPQGHYNPSTGKFTCEVPGLYYFVYYTSHTANLCVHLNLNLARVASFCDHMFNSKQVSSGGVLLRLQRGDEVWLSVNDYNGMVGIEGSNSVFSGFLLFPD
# Target: T1, tandem RBDs-Fc fusion protein (SARS-CoV-2 RBDs-Fc, FIG. 8C)
# T1 construct: also called RBDs-IgG Fc; tandem RBD-Fc
# Assay: ELISA, biotinylated C1q on coated protein
binder,measurement,value
B1,binding result,no binding (tested: C1q 2 µg/ml; 800-7.8 ng/well coated)
